Results as given in US20160264649A1.

Legend:
Assay in all cases: cell-based or functional assay
[1] = target: HIV-1 MGRM-A-001 Env (HIV-1)
[2] = target: HIV-1 92RW024 Env (HIV-1)
[3] = target: HIV-1 MGRM-A-007 Env (HIV-1)
HIV-1 VLGCA1 Env (HIV-1) = target: HIV-1 VLGCA1 Env (HIV-1)
[4] = target: HIV-1 MGRM-A-002 Env (HIV-1)
[5] = target: HIV-1 92UG031 Env (HIV-1)
[6] = target: HIV-1 MGRM-A-009 Env (HIV-1)
[7] = target: HIV-1 MGRM-A-005 Env (HIV-1)
[8] = target: HIV-1 92RW008 Env (HIV-1)
[9] = target: HIV-1 92RW020 Env (HIV-1)
[10] = target: HIV-1 94UG103 Env (HIV-1)
[11] = target: HIV-1 MGRM-A-012 Env (HIV-1)
[12] = target: HIV-1 MGRM-A-003 Env (HIV-1)
[13] = target: HIV-1 93RW029 Env (HIV-1)
[14] = target: HIV-1 MGRM-A-010 Env (HIV-1)
[15] = target: HIV-1 MGRM-A-013 Env (HIV-1)
[16] = target: HIV-1 93UG077 Env (HIV-1)
[17] = target: HIV-1 92UG037 Env (HIV-1)
[18] = target: HIV-1 MGRM-A-014 Env (HIV-1)
[19] = target: HIV-1 MGRM-A-008 Env (HIV-1)
[20] = target: HIV-1 MGRM-A-011 Env (HIV-1)
[21] = target: HIV-1 92RW026 Env (HIV-1)
[22] = target: HIV-1 92RW021 Env (HIV-1)
[23] = target: HIV-1 MGRM-A-006 Env (HIV-1)
[24] = target: HIV-1 92RW009 Env (HIV-1)
[25] = target: HIV-1 94KE105 Env (HIV-1)
[26] = target: HIV-1 MGRM-A-004 Env (HIV-1)
[27] = target: HIV-1 MGRM-D-005 Env (HIV-1)
[28] = target: HIV-1 MGRM-C-023 Env on pseudovirus (HIV-1)
[29] = target: HIV-1 MGRM-Chronic-B-003 Env on pseudovirus (HIV-1)
[30] = target: HIV-1 93TH305 Env on pseudovirus (HIV-1)
[31] = target: HIV-1 MGRM-C-022 Env on pseudovirus (HIV-1)
[32] = target: HIV-1 APV_13 Env on pseudovirus (HIV-1)
[33] = target: HIV-1 MGRM-F1-015 Env (HIV-1)
[34] = target: HIV-1 JRCSF Env on pseudovirus (HIV-1) (UniProt P20871)
[35] = target: HIV-1 MGRM-Chronic-B-024 Env on pseudovirus (HIV-1)
[36] = target: HIV-1 SF162 Env on pseudovirus (HIV-1) (UniProt P19550)
[37] = target: HIV-1 MGRM-F1-020 Env (HIV-1)
HIV-1 JRCSF Env (HIV-1) = HIV-1 JRCSF Env (HIV-1) (UniProt P20871)
[38] = target: HIV-1 MGRM-Chronic-B-004 Env on pseudovirus (HIV-1)
[39] = target: HIV-1 MGRM-G-024 Env (HIV-1)
[40] = target: HIV-1 MGRM-AG-005 Env (HIV-1)
[41] = target: HIV-1 MGRM-Chronic-B-002 Env on pseudovirus (HIV-1)
[42] = target: HIV-1 92BR020 Env (HIV-1)
[43] = target: HIV-1 MGRM-Chronic-B-020 Env on pseudovirus (HIV-1)
[44] = target: HIV-1 MGRM-G-017 Env (HIV-1)
[45] = target: HIV-1 MGRM-AG-002 Env (HIV-1)
[46] = target: HIV-1 MGRM-Chronic-B-017 Env on pseudovirus (HIV-1)
[47] = target: HIV-1 MGRM-AE-008 Env (HIV-1)
[48] = target: HIV-1 MGRM-G-004 Env (HIV-1)
[49] = target: HIV-1 MGRM-D-028 Env (HIV-1)
[50] = target: HIV-1 PVO.4 (Acute) Env on pseudovirus (HIV-1)
[51] = target: HIV-1 LAVIC_18 Env on pseudovirus (HIV-1)

Substance b12 (antibody) has a neutralization IC50 [1] of over 50 µg/mL, a neutralization IC50 [2] of over 50 µg/mL and a neutralization IC50 [3] of over 50 µg/mL. For the same substance, the neutralization IC50 (HIV-1 VLGCA1 Env (HIV-1)) was over 50 µg/mL, the neutralization IC50 [4] was over 50 µg/mL and the neutralization IC50 [5] was over 50 µg/mL. The neutralization IC50 [6] was 4.34 µg/mL, the neutralization IC50 [7] was 3.64 µg/mL and the neutralization IC50 [8] was 9.46 µg/mL. The neutralization IC50 [9] was over 50 µg/mL, the neutralization IC50 [10] was 6.92 µg/mL and the neutralization IC50 [11] was over 50 µg/mL. The neutralization IC50 [12] was over 50 µg/mL, the neutralization IC50 [13] was over 50 µg/mL and the neutralization IC50 [14] was over 50 µg/mL. The neutralization IC50 [15] was 7.04 µg/mL, the neutralization IC50 [16] was 47 µg/mL and the neutralization IC50 [17] was over 50 µg/mL. It also gave a neutralization IC50 [18] of over 50 µg/mL, a neutralization IC50 [19] of over 50 µg/mL and a neutralization IC50 [20] of 4.01 µg/mL. The neutralization IC50 [21] was over 50 µg/mL, the neutralization IC50 [22] was over 50 µg/mL and the neutralization IC50 [23] was 13.6 µg/mL. The neutralization IC50 [24] was over 50 µg/mL, the neutralization IC50 [25] was over 50 µg/mL and the neutralization IC50 [26] was over 50 µg/mL. For the same substance, the IC50 (µg/ml), pseudovirus neutralization [27] was over 50 µg/mL, the IC50 [28] was 13.9 µg/mL and the IC50 [29] was over 50 µg/mL. The IC50 [30] was 4.17 µg/mL, the IC50 [31] was over 50 µg/mL and the IC50 [32] was over 50 µg/mL. The IC50 (pseudovirus neutralization) [33] was over 50 µg/mL, the IC50 [34] was 0.21 µg/mL and the IC50 [35] was over 50 µg/mL. For the same substance, the IC50 [36] was 0.02 µg/mL, the IC50 (pseudovirus neutralization) [37] was over 50 µg/mL and the neutralization IC50 (HIV-1 JRCSF Env (HIV-1)) was 0.16 µg/mL. It also gave a neutralization IC90 (HIV-1 JRCSF Env (HIV-1)) of 1.17 µg/mL, an IC50 [38] of 0.26 µg/mL and an IC50 (µg/ml), pseudovirus neutralization [39] of 2.38 µg/mL. For the same substance, the IC50 (µg/ml), pseudovirus neutralization [40] was over 50 µg/mL, the IC50 [41] was 0.86 µg/mL and the neutralization IC50 [42] was 27.5 µg/mL. For the same substance, the neutralization IC90 [42] was over 50 µg/mL, the IC50 [43] was 6.16 µg/mL and the IC50 (µg/ml), pseudovirus neutralization [44] was over 50 µg/mL. For the same substance, the IC50 (µg/ml), pseudovirus neutralization [45] was 0.89 µg/mL, the IC50 [46] was 2.59 µg/mL and the IC50 (µg/ml), pseudovirus neutralization [47] was over 50 µg/mL. The IC50 (µg/ml), pseudovirus neutralization [48] was over 50 µg/mL, the IC50 (µg/ml), pseudovirus neutralization [49] was 0.78 µg/mL and the IC50 [50] was over 50 µg/mL. It also gave an IC50 [51] of over 50 µg/mL.
For 4E10 (antibody), the neutralization IC50 [1] was 15.1 µg/mL, the neutralization IC50 [2] was 8.88 µg/mL and the neutralization IC50 [3] was 1.82 µg/mL. It also gave a neutralization IC50 (HIV-1 VLGCA1 Env (HIV-1)) of 4.58 µg/mL, a neutralization IC50 [4] of 6.45 µg/mL and a neutralization IC50 [5] of 4.94 µg/mL. It also gave a neutralization IC50 [6] of 12 µg/mL, a neutralization IC50 [7] of 4.09 µg/mL and a neutralization IC50 [8] of 14.5 µg/mL. For the same substance, the neutralization IC50 [9] was 4.54 µg/mL, the neutralization IC50 [10] was 4.97 µg/mL and the neutralization IC50 [11] was 4.27 µg/mL. The neutralization IC50 [12] was 5.94 µg/mL, the neutralization IC50 [13] was 15.5 µg/mL and the neutralization IC50 [14] was 14.4 µg/mL. The neutralization IC50 [15] was 1.46 µg/mL, the neutralization IC50 [16] was 10.6 µg/mL and the neutralization IC50 [17] was 8.84 µg/mL. The neutralization IC50 [18] was 1.74 µg/mL, the neutralization IC50 [19] was 7.59 µg/mL and the neutralization IC50 [20] was 2.88 µg/mL. It also gave a neutralization IC50 [21] of 12.9 µg/mL, a neutralization IC50 [22] of 4.87 µg/mL and a neutralization IC50 [23] of 9.87 µg/mL. For the same substance, the neutralization IC50 [24] was over 50 µg/mL, the neutralization IC50 [25] was 7.63 µg/mL and the neutralization IC50 [26] was 3.14 µg/mL. For the same substance, the IC50 (µg/ml), pseudovirus neutralization [27] was 35.2 µg/mL, the IC50 [28] was 1.95 µg/mL and the IC50 [29] was 3.5 µg/mL. For the same substance, the IC50 [30] was 12.3 µg/mL, the IC50 [31] was 5.71 µg/mL and the IC50 [32] was 7.33 µg/mL. For the same substance, the IC50 (pseudovirus neutralization) [33] was 0.53 µg/mL, the IC50 [34] was 3.3 µg/mL and the IC50 [35] was 9.19 µg/mL. The IC50 [36] was 4.28 µg/mL, the IC50 (pseudovirus neutralization) [37] was 0.66 µg/mL and the neutralization IC50 (HIV-1 JRCSF Env (HIV-1)) was 6 µg/mL. The neutralization IC90 (HIV-1 JRCSF Env (HIV-1)) was 44.1 µg/mL, the IC50 [38] was 3.7 µg/mL and the IC50 (µg/ml), pseudovirus neutralization [39] was 1.57 µg/mL. It also gave an IC50 (µg/ml), pseudovirus neutralization [40] of 2.13 µg/mL, an IC50 [41] of 2.19 µg/mL and a neutralization IC50 [42] of 41.4 µg/mL. For the same substance, the neutralization IC90 [42] was over 50 µg/mL, the IC50 [43] was 2.45 µg/mL and the IC50 (µg/ml), pseudovirus neutralization [44] was 1.14 µg/mL. The IC50 (µg/ml), pseudovirus neutralization [45] was 0.8 µg/mL, the IC50 [46] was 2.77 µg/mL and the IC50 (µg/ml), pseudovirus neutralization [47] was 0.94 µg/mL. The IC50 (µg/ml), pseudovirus neutralization [48] was 1.47 µg/mL, the IC50 (µg/ml), pseudovirus neutralization [49] was 1.28 µg/mL and the IC50 [50] was 18.3 µg/mL. For the same substance, the IC50 [51] was over 50 µg/mL.
